This note sets out measurements from paper PMC5309860 (2017).

B1: His-β-arrestin-1-WT [not stated] / GST-PLCγ-SH3 [human] (parent complex)
chain 1: MGDKGTRVFKKASPNGKLTVYLGKRDFVDHIDLVDPVDGVVLVDPEYLKERRVYVTLTCAFRYGREDLDVLGLTFRKDLFVANVQSFPPAPEDKKPLTRLQERLIKKLGEHAYPFTFEIPPNLPCSVTLQPGPEDTGKACGVDYEVKAFCAENLEEKIHKRNSVRLVIRKVQYAPERPGPQPTAETTRQFLMSDKPLHLEASLDKEIYYHGEPISVNVHVTNNTNKTVKKIKISVRQYADICLFNTAQYKCPVAMEEADDTVAPSSTFCKVYTLTPFLANNREKRGLALDGKLKHEDTNLASSTLLREGANREILGIIVSYKVKVKLVVSRGGLLGDLASSDVAVELPFTLMHPKPKEEPPHREVPENETPVDTNLIELDTNDDDIVFEDFARQRLKGMKDDKEEEEDGTGSPQLNNR
chain 2: TFKCAVKALFDYKAQREDELTFIKSAIIQNVEKQEGGWWRGDYGGKKQLWFPSNYVEEMVN

In the first experiment the parent is B1. The experiment can be described thus: GST pull down assay (quantified western blot); 5 μM GST-PLCγ-SH3, 5 μM β-arrestin-1, with GRK6pp; parent: 2.5; read off a plot.
chain 1 P121A: the screen value is roughly 2.7 fold.
Same read-out and setting: the result for chain 1 P88A, chain 1 P89A, chain 1 P91A reads roughly 1.1 fold; that for chain 1 P180A, roughly 2.6 fold.

Variants of B1 are the subject of another experiment. The experiment is described as follows: GST pull down assay (quantified western blot); 5 μM GST-PLCγ-SH3, 5 μM β-arrestin-1, without GRK6pp; parent: 1; read off a plot. (In general: In western blotting, separated proteins are transferred to a membrane and probed.)
As to chain 1 P121A, the screen value is roughly 1.1 fold.
On the same count and under the same terms, the result for chain 1 P88A, chain 1 P89A, chain 1 P91A reads roughly 1.1 fold; that for chain 1 P180A, roughly 1.2 fold.
